The supplement of paper PMC7125110
± gives the standard error. For some assays here: Variants at the floor of the assay were thinned out.

B1: glmS ribozyme (parent)
chain: AUAAAAGCGCCAGAACUACAGAAAUGUAGUUGACGAGGAGGAGGUUUAUCGAAUUUUCGGCGGAUGCCUCCAAA

What was measured:
Details in all cases: with glucosamine-6-phosphate
glucosamine-6-phosphate [1] = variants of: B1; experiment: kcat; higher = faster cleavage; RNA array
In short: (§1)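 Tiles of sequenced MiSeq chips were imaged over ~14 h at 37 °C. On them, barcoded ribozyme variants had been transcribed in situ by E. coli RNA polymerase and were tracked via a hybridised Cy3 probe while glucosamine-6-phosphate (40 μM to 10 mM) in HEPES/KCl/Mg(OAc)2 buffer flowed in. Per-tile medians, normalised to baseline and to non-cleaving reference variants, were fit to one- or two-exponential decays for kobs, and weighted Michaelis–Menten fits gave kcat and KM.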

glucosamine-6-phosphate [2] = variants of: B1; experiment: KM; higher = weaker cofactor use; RNA array
In short: as §1

glucosamine-6-phosphate [3] = variants of: B1; experiment: self-cleavage kobs at 640 uM GlcN6P; higher = faster cleavage; RNA array
In short: as §1

glucosamine-6-phosphate [4] = variants of: B1; experiment: self-cleavage kobs at 2500 uM GlcN6P; higher = faster cleavage; RNA array
In short: as §1

glucosamine-6-phosphate [5] = variants of: B1; experiment: self-cleavage kobs at 10000 uM GlcN6P; higher = faster cleavage; RNA array
In short: as §1

glucosamine-6-phosphate [6] = variants of: B1; experiment: self-cleavage kobs at 160 uM GlcN6P; higher = faster cleavage; RNA array
In short: as §1

glucosamine-6-phosphate [7] = variants of: B1; experiment: self-cleavage kobs at 40 uM GlcN6P; higher = faster cleavage; RNA array
In short: as §1

| Variant | kcat (glucosamine-6-phosphate [1]) [s⁻¹] | KM (glucosamine-6-phosphate [2]) [µM] | self-cleavage kobs at 640 uM GlcN6P (glucosamine-6-phosphate [3]) [s⁻¹] | self-cleavage kobs at 2500 uM GlcN6P (glucosamine-6-phosphate [4]) [s⁻¹] | self-cleavage kobs at 10000 uM GlcN6P (glucosamine-6-phosphate [5]) [s⁻¹] | self-cleavage kobs at 160 uM GlcN6P (glucosamine-6-phosphate [6]) [s⁻¹] | self-cleavage kobs at 40 uM GlcN6P (glucosamine-6-phosphate [7]) [s⁻¹] |
| --- | --- | --- | --- | --- | --- | --- | --- |
| A33C U45A | 0.000472 ± 1.3e-05 | 3500 ± 180 | 7.41e-05 ± 1.9e-05 | 0.000197 ± 2.9e-05 | 0.00035 ± 5.3e-05 |  |  |
| G32A U55C | 0.00196 ± 0.00036 | 2790 ± 760 | 0.000403 ± 4.8e-05 | 0.00122 ± 0.0002 | 0.00143 ± 0.00018 | 9.47e-05 ± 1.6e-05 |  |
| G32A G40A | 0.000781 ± 2.4e-05 | 2220 ± 130 | 0.000175 ± 3.4e-05 | 0.000414 ± 6.4e-05 | 0.000639 ± 8.9e-05 | 5.38e-05 ± 1.8e-05 |  |
| G32A G40U | 0.00051 ± 0.0001 | 3900 ± 1200 | 7.8e-05 ± 9.2e-06 | 0.000169 ± 2.5e-05 | 0.000401 ± 5.6e-05 |  |  |
| U31G A42U | 5.2e-05 ± 1.3e-05 |  |  | 2.29e-05 ± 1.1e-05 | 4.27e-05 ± 1.1e-05 |  |  |
| G35A G38A | < 1e-05 |  |  |  |  |  |  |
| A33U U45A | 0.000201 ± 3.4e-05 | 4400 ± 1700 |  | 7.97e-05 ± 1.2e-05 | 0.000137 ± 1.5e-05 |  | < 1e-05 |
| G35U G43U | < 1e-05 |  | < 1e-05 | < 1e-05 |  |  |  |
| U31G C68U | 0.00134 ± 0.00023 | 2020 ± 590 | 0.000312 ± 4.3e-05 | 0.000606 ± 0.0001 | 0.00126 ± 0.00015 | 0.000119 ± 2.9e-05 | 3.14e-05 ± 7.7e-06 |
| G32A G44A | 6.55e-05 ± 1.7e-05 |  |  |  |  |  |  |
| A33G G38C | < 1e-05 |  |  |  |  | < 1e-05 | < 1e-05 |
| U31G A52U | 8.72e-05 ± 5.4e-06 | 1520 ± 320 |  | 5.7e-05 ± 9.5e-06 | 7.41e-05 ± 1.1e-05 |  | < 1e-05 |
| A33U G60C | < 1e-05 |  | < 1e-05 |  | < 1e-05 |  | < 1e-05 |
| U31G G59U | 3.05e-05 ± 9.5e-07 | 511 ± 160 |  |  | 2.88e-05 ± 1e-05 |  |  |
| C34A C67G | < 1e-05 |  | < 1e-05 | < 1e-05 |  | < 1e-05 | < 1e-05 |
| A33G G63C | < 1e-05 |  | < 1e-05 |  |  |  | < 1e-05 |
| C34G C50G G62A | 2.47e-05 ± 3.6e-06 |  |  |  |  |  |  |
| U31G U69G | 5.43e-05 ± 8.8e-06 |  | 5.73e-05 ± 1.2e-05 | 5.24e-05 ± 7.9e-06 | 4.43e-05 ± 1e-05 | 9.12e-05 ± 1.7e-05 |  |
| U31G C58G | 0.000125 ± 1.3e-05 | 1100 ± 400 | 5.51e-05 ± 1.3e-05 | 7.65e-05 ± 1.2e-05 | 0.000119 ± 1.3e-05 |  |  |

| Variant | kcat (glucosamine-6-phosphate [1]) [s⁻¹] | KM (glucosamine-6-phosphate [2]) [µM] | self-cleavage kobs at 640 uM GlcN6P (glucosamine-6-phosphate [3]) [s⁻¹] | self-cleavage kobs at 2500 uM GlcN6P (glucosamine-6-phosphate [4]) [s⁻¹] | self-cleavage kobs at 10000 uM GlcN6P (glucosamine-6-phosphate [5]) [s⁻¹] | self-cleavage kobs at 160 uM GlcN6P (glucosamine-6-phosphate [6]) [s⁻¹] | self-cleavage kobs at 40 uM GlcN6P (glucosamine-6-phosphate [7]) [s⁻¹] |
| --- | --- | --- | --- | --- | --- | --- | --- |
| A33U U47C | 3.28e-05 ± 1.2e-05 |  |  |  | 3.01e-05 ± 1.1e-05 |  | < 1e-05 |
| G32A C68U | 0.0003 ± 1.7e-05 | 2170 ± 300 | 7.37e-05 ± 1.1e-05 | 0.000149 ± 1.9e-05 | 0.000251 ± 2e-05 |  |  |
| G32U C67U | 0.00034 ± 4.6e-05 | 1790 ± 580 | 0.000104 ± 1.3e-05 | 0.000166 ± 2.2e-05 | 0.000303 ± 2.5e-05 |  |  |
| A33G U49C U57A | 2.2e-05 ± 2.7e-06 |  |  |  |  |  |  |
| A33U C58A | < 1e-05 |  | < 1e-05 |  |  | < 1e-05 |  |
| G32A C61U | < 1e-05 |  | < 1e-05 |  |  | < 1e-05 |  |
| C34A U45A G51U | 0.000482 ± 0.00015 |  | 0.000198 ± 5.3e-05 | 0.000272 ± 0.0001 | 0.00041 ± 0.00016 |  |  |
| G32A C58A | 0.00126 ± 0.00024 | 3330 ± 920 | 0.000201 ± 2.2e-05 | 0.000498 ± 5.6e-05 | 0.00106 ± 0.00016 | 7.42e-05 ± 1.4e-05 |  |
| C34U C58G | < 1e-05 |  |  |  | < 1e-05 |  |  |
| C34U C58A | < 1e-05 |  | < 1e-05 | < 1e-05 |  |  | < 1e-05 |
| U31G U46C | 0.000896 ± 0.00013 | 1720 ± 420 | 0.00021 ± 6.8e-05 | 0.000592 ± 0.00011 | 0.000731 ± 0.00014 | 7.33e-05 ± 1.5e-05 | 3.68e-05 ± 1.6e-05 |
| A33G C58G | < 1e-05 |  |  |  | < 1e-05 |  |  |
| U31G U47G | 0.00226 ± 0.00055 | 1880 ± 720 | 0.000663 ± 0.00011 | 0.0016 ± 0.00031 | 0.00176 ± 0.00028 | 0.000127 ± 3.3e-05 | 7.25e-05 ± 1.9e-05 |
| G32U A36C | < 1e-05 |  |  | < 1e-05 | < 1e-05 |  |  |
| C34G C68U | 1.7e-05 ± 5.3e-06 |  |  |  |  |  |  |
| C34G A52G | < 1e-05 |  |  | < 1e-05 |  |  |  |
| U31G G66U U69G | 4.42e-05 ± 1.3e-05 |  |  | 6.07e-05 ± 1.6e-05 |  | 6.31e-05 ± 2.1e-05 |  |
| A33U G38C | < 1e-05 |  |  |  | < 1e-05 |  |  |
| A33U A39G | 0.00016 ± 3.8e-05 |  |  | 6.65e-05 ± 2.8e-05 | 0.000108 ± 1.3e-05 | < 1e-05 |  |
